Test: yeast display, Sf9 membrane polyspecificity reagent, FACS + sequencing; frameworks hold sequencing errors
Summary of the method: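 Using colony PCR, genes from sorted yeast display clones were amplified, then sequenced on MiSeq at 2 × 250 and filtered by CDR length. The clones had been stained with 10% biotinylated, detergent-solubilized Sf9 membrane reagent for 1 hour at 4 °C and sorted by FACS into low and high (top ~1%) gates on anti-HA and streptavidin fluorescence. Polyreactivity labels come from the gate of origin.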

Sequence: QVQLVESGGGLVQAGGSLRLSCAASGSISGVYAMGWYRQAPGKERELVAAISRSGGSTYYADSVKGRFTISRDNAKNTVYLQMNSLKPEDTAVYYCAAEYTYYSYGGNYDYWGQGTQVSVSS
- polyreactivity (PSR sort gate): low polyreactivity

Sequence: QVQLVESGGGLVQAGGSLRLSCAASGSISGYYVKGWYRQAQGKERELVAAITWRGGSTYYADSVKGRFTISRDNAKNTVYLQMNSLKPEDTAVYYCNKVPGRRSTFEYWGQGTQVTVSS
- polyreactivity (PSR sort gate): high polyreactivity

Sequence: QVQLVESGGGLVQAGGSLRLSCAASGSISIFYMGWYRQAPGKERELVAAISWSGGRTYYADSVKGRFTISRDNAKNTVYLQMNSLKREDTAVYYCAASRSFPGYGLYYYWGQGTQVTVSS
- polyreactivity (PSR sort gate): low polyreactivity

Sequence: QVQLVESGGGLVQAGGSLRLSCAASGSISKINAMGWYRQAPGKESELGAAINTGDSTYYADSVKGRFTISRDNAKNTVYLQMNSLKPEDTAVYYCAAEGSPTGYDDWGQGTQGTVSS
- polyreactivity (PSR sort gate): low polyreactivity

Sequence: QVQLVESGGGLVQAGGSLRLSCAASGSISLHYAMGWYRQAPGKERELVAAISKSGGSTYYADSVKGRFTISRDNAKNTVYLQMNSLKPEDTAVYYCAADTYRSFGYNYWGQGTQVTVSS
- polyreactivity (PSR sort gate): high polyreactivity

Sequence: QVQLVESGGGLVQAGGSLRLSCAASGSISNRNAMGWYRQAPGKERELVAAITYSGGSTYYADSVKGRFTISRDNAKNTVYLQMNSLKPEDTAVYYCAKDHYRFRYDYWGQGTQVTVSS
- polyreactivity (PSR sort gate): low polyreactivity

Sequence: QVQLVESGGGLVQAGGSLRLSCAASGSISNVYDMGWYRQAPGKERELVATISRTGDSTYYADSVKGRFTISRDNAKNTVYLQMNSLKPEDTAVYYCAARFYWWGLGDDYWGQGTQVTVSS
- polyreactivity (PSR sort gate): high polyreactivity

Sequence: QVQLVESGGGLVQAGGSLRLSCAASGSISPQNVMGWYRQAPGKERELVAAITGGGYTNYADSVKGRFTISRDNAKKTVYLQMNSLKPEDTAVYYCNADYFQDRLDYWGQGTQVTVSS
- polyreactivity (PSR sort gate): low polyreactivity

Sequence: QVQLVESGGGLVQAGGSLRLSCAASGSISRVYAMGWYRAAPGKERELVASISRSGGSTYYADSVKGRFTISRDNAKNTVYLQRNSLKPEDTAVYYCAKASKGQYRFDYWGQGTQVTVSS
- polyreactivity (PSR sort gate): low polyreactivity

Sequence: QVQLVESGGGLVQAGGSLRLSCAASGSISSLNTMGWYRQAPGKERELVASISRRGGSTYYADSVKGRFTISRDNAKNTVYLQINSLKPEDTAVFYCAARGVGGTVPTRYDYWGQGTQVTVSS
- polyreactivity (PSR sort gate): high polyreactivity

Sequence: QVQLVESGGGLVQAGGSLRLSCAASGSISSQNAMVSYRQAPGKERELVAAISWIGGSTYYADSVKGRFTISRDFAKNTVYLQMNSLKPEDTAVYYCAKDRARGFKYYYWGQGTQVTVSS
- polyreactivity (PSR sort gate): low polyreactivity

Sequence: QVQLVESGGGLVQAGGSLRLSCAASGSISSWYAMGWYRQAPGKERELVAAISSGVTTYYADSVKGRFTISRDNAKNTVYLQMHSLKPEDTAVDYCAAKTALYRERGYWGQGTQVTVSS
- polyreactivity (PSR sort gate): low polyreactivity

Sequence: QVQLVESGGGLVQAGGSLRLSCAASGSISSYAMGWYRQAPGKERELVASITWHGGGTYYADSVKGRFTISRDNAKNTVYLQMNSLKPEDTAVYYCNADYVYSWYEPLKYNYWGQGTQVTVSS
- polyreactivity (PSR sort gate): low polyreactivity

Sequence: QVQLVESGGGLVQAGGSLRLSCAASGSISVNAMVWDRQAPGKERELVAVINRSGGNTYYADSVKGRFTISRDNAKNTVYLQMNSLKPEDTAVYYCAAKWTRSYSRYDYWGQVTQVTVSS
- polyreactivity (PSR sort gate): high polyreactivity

Sequence: QVQLVESGGGLVQAGGSLRLSCAASGSISWWYAMGWYRQAPGKERELVAAISSRGGSTYYADSVKGRFTISRDNAKNTVYLQMNSLKPEDTAVYYCAKYYYVGTSFYQGDYWGQGTQVTVSS
- polyreactivity (PSR sort gate): low polyreactivity

Sequence: QVQLVESGGGLVQAGGSLRLSCAASGSISYRYDMGWYRQAPGKERELVATIRSGGSTNYADSVKGRFTISRDNAKNTVYLQMNSMIPEDTAVYYCAARLYARKILHFSADSDYWGQGTQVTVSS
- polyreactivity (PSR sort gate): low polyreactivity

Sequence: QVQLVESGGGLVQAGGSLRLSCAASGSISYRYVMGWYRQAPGKERELVAAITTSGGSTYYADSVKGRFTISRDNAKNTVYLQMNSLKPEDTAVYYCATVYQAAQLRSHYDYWGQGTQVTVSS
- polyreactivity (PSR sort gate): high polyreactivity

Sequence: QVQLVESGGGLVQAGGSLRLSCAASGSISYYNAMGWYRQAPGKERELVATITDSGGSTYYADSVKGRFTISRDNAKNTVYLQLNSLKPEDTAVYYCAVDYSEWYSIYDYWGQGTQVTVSS
- polyreactivity (PSR sort gate): low polyreactivity

Sequence: QVQLVESGGGLVQAGGSLRLSCAASGSIVGYAMGWYRQAPGKERELVAAISSGGSTNYADSVKGRFTISSDNAKNTVYLQMNSLKPVDTAVYYCAARRRYKSGYWGQGTQVTVSS
- polyreactivity (PSR sort gate): high polyreactivity

Sequence: QVQLVESGGGLVQAGGSLRLSCAASGSIVPFYAMGWDRQAPGKERELVATISSGDSTHYADSVKGRFTISRDNAKNTVYLQMNSLKPEDTAVYYCNRRNKAQRFFELGYWGQGTQVTVSS
- polyreactivity (PSR sort gate): low polyreactivity

Sequence: QVQLVESGGGLVQAGGSLRLSCAASGSIVPYNVMGWYRQAPGKERELVAAITRRGGSTYYADSVKGRFTISRDNAKNTVYLQMNSLKPEDSAVYYCAAVPYPRGKGYDYWGQGTQVTVSS
- polyreactivity (PSR sort gate): high polyreactivity

Sequence: QVQLVESGGGLVQAGGSLRLSCAASGSIVRYSVGWYRQAPGKERELVAAISIGGTTYYADSVKGRFTISRDNAKNTVYLPMNSLKPEDTAVYYCNVRRRTWHYITSMDYWGQGTQVNVSS
- polyreactivity (PSR sort gate): high polyreactivity

Sequence: QVQLVESGGGLVQAGGSLRLSCAASGSIVSTYAMGWYSQAPGKERELVAAITSTGSMNYADSVKGRFTISRDNAKNTVYLQMNSLKPEDTAVYYCAARYAGPSPTDTGHDYWGQGTQVTVSS
- polyreactivity (PSR sort gate): low polyreactivity

Sequence: QVQLVESGGGLVQAGGSLRLSCAASGSIVTSNAMGWYRQAPGKERELVAAITSSSSTNYADSVKGRFTISRDNAKNTVYLQMNSLKPEDTAVYYCAADYTWYYPYWIMDYWGQGTQVTVSS
- polyreactivity (PSR sort gate): low polyreactivity

Sequence: QVQLVESGGGLVQAGGSLRLSCAASGSIVYANTMGRYRQAPGKERELVAAIRSVGRTYYADSVKGRFTISRDNAKNTVYLQMNSLKPADTAVYYCAADPRSYFTSEYWGQGTQVTVSS
- polyreactivity (PSR sort gate): low polyreactivity

Sequence: QVQLVESGGGLVQAGGSLRLSCAASGSIYDSYAMGWYRQAPGKERELVATINTSGGSTYYADSVKGRFTIHDNAKNTVYLQMNSLKPEDTAVYYCNAGRWVYWQNNFGDYGYWGQGTQVTVSS
- polyreactivity (PSR sort gate): low polyreactivity

Sequence: QVQLVESGGGLVQAGGSLRLSCAASGSIYGDYVMGWYRQAPGKERELVAAINRGGYTYYADSVKGRFTISRDNAKNTVYLQMNSLKPEDTAVYYCAAGYPSWYYGYPYDSWGQGTQVTVSS
- polyreactivity (PSR sort gate): low polyreactivity

Sequence: QVQLVESGGGLVQAGGSLRLSCAASGSIYGLNAMGWYRQAPGKESELVAAITWSGGSSTYYADSVKGRFTISRDNAKNTVYLQMNSLKPVDTAVYYCAAGRVFIPYYFRFYYWGQGTQVSVSS
- polyreactivity (PSR sort gate): high polyreactivity

Sequence: QVQLVESGGGLVQAGGSLRLSCAASGSIYGPYAMGLYRQAPGKERELVAGITRSVGSTYYADSVKGRFTISRDYAKNTVYLQMNSLKPEDTAVYYCNAKWMYSRWAGYDYWGQGTQVTVSS
- polyreactivity (PSR sort gate): low polyreactivity

Sequence: QVQLVESGGGLVQAGGSLRLSCAASGSIYGVKAMRWYRQAPGKERELVADITKSTGDTYADSVKGRFTISRDNAKNTVYLQMNSLKPEDTAGYYCNARVTVKQKRLYLYDFWGQGTQVTVSS
- polyreactivity (PSR sort gate): low polyreactivity

Sequence: QVQLVESGGGLVQAGGSLRLSCAASGSIYPNGLGWYRQAPGKERELVATITSGGSTYYADSVKGRFTISRDNAKNTVYLPMHSQKPEDTAVYYCAATVYGGYSGSGSNYWGQGTQVTVSS
- polyreactivity (PSR sort gate): low polyreactivity

Sequence: QVQLVESGGGLVQAGGSLRLSCAASGSIYRQYAMGWSRPAPGKERELVAASRRGTSTYYADSVKGRFTLSRDNAKNTVYLHMNSLKPDDSAVYYCAADTSWYSWWFDYWGQGTQVTVSS
- polyreactivity (PSR sort gate): low polyreactivity

Sequence: QVQLVESGGGLVQAGGSLRLSCAASGSIYRYYAMGWYRQAPGKETELVAAIRVSTGSTSYADSVKGRFTISRDNAKNTVYLQMNSLKPEDTAFYYCNAGVGYFVGTYYGFLPYDYWGQGTQVTVSS
- polyreactivity (PSR sort gate): high polyreactivity

Sequence: QVQLVESGGGLVQAGGSLRLSCAASGSIYYNAMGWYRQAPGKERELVAAISTSGGTTYYADSVKGRFTISRDNAKNTVYLQMISQKPEDTAVYYCNARPSRRGAFDYWGQGTQVTVSS
- polyreactivity (PSR sort gate): high polyreactivity

Sequence: QVQLVESGGGLVQAGGSLRLSCAASGSIYYRNAMGSYRQAPGKERELVAAISSTGSTYYADSVKGRFTISRDNAKNTVYLQMNSMKPEDTAVYYCAARQGYRSYRRYDSWGQGTQVTVSS
- polyreactivity (PSR sort gate): high polyreactivity

Sequence: QVQLVESGGGLVQAGGSLRLSCAASGSIYYTYAMGWYRPAPGKERELVAAISKRGGSTYYADSVKGRFTISRDNAKNSVYLQMNSLKPEDTAVYYCAARYNAPRGGGSDDYWGQGTQVTVSS
- polyreactivity (PSR sort gate): high polyreactivity

Sequence: QVQLVESGGGLVQAGGSLRLSCAASGSIYYYTMGWYRQAPGKERELVAAISRSGTRTYYADSVKGRFTISRDNAMYTVYLQMNSLKPEDTAGYYCAARILPPGDNVDDDYWGQGTQVTVSS
- polyreactivity (PSR sort gate): high polyreactivity

Sequence: QVQLVESGGGLVQAGGSLRLSCAASGSLFFLYAMGWYRQAPGKDRELVAAISRTGSTYADSVKGRFTISRDNAKTTVYLQMNSVKPEDTAVYYCAAEYRYYWYGTMNYWGQCTQVTVSS
- polyreactivity (PSR sort gate): low polyreactivity

Sequence: QVQLVESGGGLVQAGGSLRLSCAASGSLLADNAMGWSRQAPGKERELVAAISRRGGRTYYADSVKGRFTISRDNAKNTVYLQMNSLKPEDTAVYYCAAVGSFHIVDYWGQGTQVTVSS
- polyreactivity (PSR sort gate): high polyreactivity

Sequence: QVQLVESGGGLVQAGGSLRLSCAASGSNFAKNAMGWYRQAPGKEREMVAAITYSGGSTYYADSVKGRFTISRDNAKNTVYVQMNSLKPEDTAVYYCAADVWWSYYRYDYWGQGTQVTVSS
- polyreactivity (PSR sort gate): low polyreactivity

Sequence: QVQLVESGGGLVQAGGSLRLSCAASGSNFANYAMGWYRQAPGKEREFVAGISGSGGSTFYADSVKGRFTISRDNAKNTVYLQMNSLKPEDTAVYYCAVVQRSKRTYPWYDYWGQGTQVTVSS
- polyreactivity (PSR sort gate): low polyreactivity

Sequence: QVQLVESGGGLVQAGGSLRLSCAASGSNFDLNAMGLYRQAPGKERELVAAISSGGGTYYADSVKGRFTIARDNAKNTVYLQMNSLKPEDTAVYYCNRVTRWTYNYWGQGTQVTVSS
- polyreactivity (PSR sort gate): high polyreactivity

Sequence: QVQLVESGGGLVQAGGSLRLSCAASGSNFFSNAMGWYRQAPGKERELVAAITSSGASTYYADSVKGRFTISRDNAKNTVYLQMNSLKPEDTAVYYCAVVGGGKRYGYWGQGTQVTVSS
- polyreactivity (PSR sort gate): high polyreactivity

Reference: the nanobody polyreactivity screen of Harvey et al. (2022)
